Data published in PMC5159498 (2016).

B1: IQGAP1 GRD1-RGCT S1441E (aa 877-1558) (domain or fragment)
chain: DQSDQDFQEELDLMKMREEVITLIRSNQQLENDLNLMDIKIGLLVKNKITLQDVVSHSKKLTKKNKEQLSDMMMINKQKGGLKALSKEKREKLEAYQHLFYLLQTNPTYLAKLIFQMPQNKSTKFMDSVIFTLYNYASNQREEYLLLRLFKTALQEEIKSKVDQIQEIVTGNPTVIKMVVSFNRGARGQNALRQILAPVVKEIMDDKSLNIKTDPVDIYKSWVNQMESQTGEASKLPYDVTPEQALAHEEVKTRLDSSIRNMRAVTDKFLSAIVSSVDKIPYGMRFIAKVLKDSLHEKFPDAGEDELLKIIGNLLYYRYMNPAIVAPDAFDIIDLSAGGQLTTDQRRNLGSIAKMLQHAASNKMFLGDNAHLSIINEYLSQSYQKFRRFFQTACDVPELQDKFNVDEYSDLVTLTKPVIYISIGEIINTHTLLLDHQDAIAPEHNDPIHELLDDLGEVPTIESLIGESSGNLNDPNKEALAKTEVSLTLTNKFDVPGDENAEMDARTILLNTKRLIVDVIRFQPGETLTEILETPATSEQEAEHQRAMQRRAIRDAKTPDKMKKEKSVKEDSNLTLQEKKEKIQTGLKKLTELGTVDPKNKYQELINDIARDIRNQRRYRQRRKAELVKLQQTYAALNSKATFYGEQVDYYKSYIKTCLDNLASKGKVSKKPREMKGKKSKK
B2: IQGAP1 GRD1-RGCT S1443E (aa 877-1558) (domain or fragment)
chain: DQSDQDFQEELDLMKMREEVITLIRSNQQLENDLNLMDIKIGLLVKNKITLQDVVSHSKKLTKKNKEQLSDMMMINKQKGGLKALSKEKREKLEAYQHLFYLLQTNPTYLAKLIFQMPQNKSTKFMDSVIFTLYNYASNQREEYLLLRLFKTALQEEIKSKVDQIQEIVTGNPTVIKMVVSFNRGARGQNALRQILAPVVKEIMDDKSLNIKTDPVDIYKSWVNQMESQTGEASKLPYDVTPEQALAHEEVKTRLDSSIRNMRAVTDKFLSAIVSSVDKIPYGMRFIAKVLKDSLHEKFPDAGEDELLKIIGNLLYYRYMNPAIVAPDAFDIIDLSAGGQLTTDQRRNLGSIAKMLQHAASNKMFLGDNAHLSIINEYLSQSYQKFRRFFQTACDVPELQDKFNVDEYSDLVTLTKPVIYISIGEIINTHTLLLDHQDAIAPEHNDPIHELLDDLGEVPTIESLIGESSGNLNDPNKEALAKTEVSLTLTNKFDVPGDENAEMDARTILLNTKRLIVDVIRFQPGETLTEILETPATSEQEAEHQRAMQRRAIRDAKTPDKMKKSKEVKEDSNLTLQEKKEKIQTGLKKLTELGTVDPKNKYQELINDIARDIRNQRRYRQRRKAELVKLQQTYAALNSKATFYGEQVDYYKSYIKTCLDNLASKGKVSKKPREMKGKKSKK
B3: CDC42 (aa 1-178) (domain or fragment)
chain: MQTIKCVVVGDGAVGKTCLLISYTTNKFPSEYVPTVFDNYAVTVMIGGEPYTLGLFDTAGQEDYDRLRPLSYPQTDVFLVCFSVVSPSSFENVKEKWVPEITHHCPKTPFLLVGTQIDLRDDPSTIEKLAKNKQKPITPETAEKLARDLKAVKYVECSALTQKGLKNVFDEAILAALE

Experiments:
[1] = biological target: RAC1 (aa 1-179) (human, UniProt P63000 1-179); test: mGppNHp-bound RAC1
[2] = biological target: B3; test: mGppNHp-bound CDC42
[3] = biological target: CDC42 Q61L (human, UniProt P60953 1-178, Q61L); test: tGppNHp-bound CDC42 Q61L
CDC42 Q61L, sequence (P60953 1-178 Q61L): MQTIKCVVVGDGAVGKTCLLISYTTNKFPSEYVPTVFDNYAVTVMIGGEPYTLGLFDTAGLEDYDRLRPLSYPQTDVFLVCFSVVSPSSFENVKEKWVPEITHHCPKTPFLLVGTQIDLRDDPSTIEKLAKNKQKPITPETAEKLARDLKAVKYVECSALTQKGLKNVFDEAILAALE

[4] = biological target: B2; test: mGppNHp-bound CDC42
[5] = biological target: B1; test: mGppNHp-bound CDC42

koff [1] [s⁻¹]	koff [2] [s⁻¹]	koff [3] [s⁻¹]	koff [4] [s⁻¹]	koff [5] [s⁻¹]	Binder
0.66	0.39	0.073	–	–	IQGAP1 GRD1-CT (aa 863-1657) (domain or fragment) DPPMVVVRKFVHLLDQSDQDFQEELDLMKMREEVITLIRSNQQLENDLNLMDIKIGLLVKNKITLQDVVSHSKKLTKKNKEQLSDMMMINKQKGGLKALSKEKREKLEAYQHLFYLLQTNPTYLAKLIFQMPQNKSTKFMDSVIFTLYNYASNQREEYLLLRLFKTALQEEIKSKVDQIQEIVTGNPTVIKMVVSFNRGARGQNALRQILAPVVKEIMDDKSLNIKTDPVDIYKSWVNQMESQTGEASKLPYDVTPEQALAHEEVKTRLDSSIRNMRAVTDKFLSAIVSSVDKIPYGMRFIAKVLKDSLHEKFPDAGEDELLKIIGNLLYYRYMNPAIVAPDAFDIIDLSAGGQLTTDQRRNLGSIAKMLQHAASNKMFLGDNAHLSIINEYLSQSYQKFRRFFQTACDVPELQDKFNVDEYSDLVTLTKPVIYISIGEIINTHTLLLDHQDAIAPEHNDPIHELLDDLGEVPTIESLIGESSGNLNDPNKEALAKTEVSLTLTNKFDVPGDENAEMDARTILLNTKRLIVDVIRFQPGETLTEILETPATSEQEAEHQRAMQRRAIRDAKTPDKMKKSKSVKEDSNLTLQEKKEKIQTGLKKLTELGTVDPKNKYQELINDIARDIRNQRRYRQRRKAELVKLQQTYAALNSKATFYGEQVDYYKSYIKTCLDNLASKGKVSKKPREMKGKKSKKISLKYTAARLHEKGVLLEIEDLQVNQFKNVIFEISPTEEVGDFEVKAKFMGVQMETFMLHYQDLLQLQYEGVAVMKLFDRAKVNVNLLIFLLNKKFYGK
2.78	2.23	–	–	–	IQGAP1 GRD1-RGCT wild type (aa 877-1558) (domain or fragment) DQSDQDFQEELDLMKMREEVITLIRSNQQLENDLNLMDIKIGLLVKNKITLQDVVSHSKKLTKKNKEQLSDMMMINKQKGGLKALSKEKREKLEAYQHLFYLLQTNPTYLAKLIFQMPQNKSTKFMDSVIFTLYNYASNQREEYLLLRLFKTALQEEIKSKVDQIQEIVTGNPTVIKMVVSFNRGARGQNALRQILAPVVKEIMDDKSLNIKTDPVDIYKSWVNQMESQTGEASKLPYDVTPEQALAHEEVKTRLDSSIRNMRAVTDKFLSAIVSSVDKIPYGMRFIAKVLKDSLHEKFPDAGEDELLKIIGNLLYYRYMNPAIVAPDAFDIIDLSAGGQLTTDQRRNLGSIAKMLQHAASNKMFLGDNAHLSIINEYLSQSYQKFRRFFQTACDVPELQDKFNVDEYSDLVTLTKPVIYISIGEIINTHTLLLDHQDAIAPEHNDPIHELLDDLGEVPTIESLIGESSGNLNDPNKEALAKTEVSLTLTNKFDVPGDENAEMDARTILLNTKRLIVDVIRFQPGETLTEILETPATSEQEAEHQRAMQRRAIRDAKTPDKMKKSKSVKEDSNLTLQEKKEKIQTGLKKLTELGTVDPKNKYQELINDIARDIRNQRRYRQRRKAELVKLQQTYAALNSKATFYGEQVDYYKSYIKTCLDNLASKGKVSKKPREMKGKKSKK
2.71	–	–	–	–	B1
2.82	–	–	–	–	B2
–	–	–	2.32	1.83	B3
